Results from patent US20230365685A1.

B1: TSR022 (antibody, INN chains, looked up, V domains shown)
VH: EVQLLESGGGLVQPGGSLRLSCAAASGFTFSSYDMSWVRQAPGKGLDWVSTISGGGTYTYYQDSVKGRFTISRDNSKNTLYLQMNSLRAEDTAVYYCASMDYWGQGTTVTVSS
VL: DIQMTQSPSSLSASVGDRVTITCRASQSIRRYLNWYHQKPGKAPKLLIYGASTLQSGVPSRFSGSGSGTDFTLTISSLQPEDFAVYYCQQSHSAPLTFGGGTKVEIK
B2: MBG453 (antibody, INN chains, looked up, V domains shown)
VH: QVQLVQSGAEVKKPGSSVKVSCKASGYTFTSYNMHWVRQAPGQGLEWMGDIYPGNGDTSYNQKFKGRVTITADKSTSTVYMELSSLRSEDTAVYYCARVGGAFPMDYWGQGTTVTVSS
VL: AIQLTQSPSSLSASVGDRVTITCRASESVEYYGTSLMQWYQQKPGKAPKLLIYAASNVESGVPSRFSGSGSGTDFTLTISSLQPEDFATYFCQQSRKDPSTFGGGTKVEIKR

How the values were obtained:
[1] = molecular target: biotinylated human TIM-3 (human) (UniProt Q8TDQ0); experiment: competition ELISA: antibody coated, biotinylated human TIM-3 preincubated with competitor TSR022
[2] = molecular target: biotinylated human TIM-3 (human) (UniProt Q8TDQ0); experiment: competition ELISA: antibody coated, biotinylated human TIM-3 preincubated with competitor 4H2
[3] = molecular target: biotinylated human TIM-3 (human) (UniProt Q8TDQ0); experiment: competition ELISA: antibody coated, biotinylated human TIM-3 preincubated with competitor MBG453
[4] = molecular target: biotinylated human TIM-3 (human) (UniProt Q8TDQ0); experiment: competition ELISA: antibody coated, biotinylated human TIM-3 preincubated with competitor CH 11#
[5] = molecular target: biotinylated human TIM-3 (human) (UniProt Q8TDQ0); experiment: competition ELISA: antibody coated, biotinylated human TIM-3 preincubated with competitor 19D11
[6] = molecular target: biotinylated human TIM-3 (human) (UniProt Q8TDQ0); experiment: competition ELISA: antibody coated, biotinylated human TIM-3 preincubated with competitor 16H1
[7] = molecular target: biotinylated human TIM-3 (human) (UniProt Q8TDQ0); experiment: competition ELISA: antibody coated, biotinylated human TIM-3 preincubated with competitor CH 10#
[8] = molecular target: biotinylated human TIM-3 (human) (UniProt Q8TDQ0); experiment: competition ELISA: antibody coated, biotinylated human TIM-3 preincubated with competitor 3E6

| Binder | inhibit percentage [1] [%] | inhibit percentage [2] [%] | inhibit percentage [3] [%] | inhibit percentage [4] [%] | inhibit percentage [5] [%] | inhibit percentage [6] [%] | inhibit percentage [7] [%] | inhibit percentage [8] [%] |
| --- | --- | --- | --- | --- | --- | --- | --- | --- |
| B1 | 100 | 98.1 | 99.1 | 0 | 0 | 70.2 | 40.5 | 95.8 |
| B2 | 94.8 | 95.9 | 100 | 8.29 | 4.39 | 99.2 | 15.8 | 94.3 |
